As usually defined, the IC50 is the concentration that inhibits the measured activity by half. The low end stands for greater potency in that assay, the high end for weaker potency in that assay.

The source of these data is US20050058645A1 (ZENYTH OPERATIONS, published 2005).

The target in test [1] is T1, mouse IL-13Rα1 (mouse, UniProt O09030 26-340, limits assumed).
T1 sequence (looked up): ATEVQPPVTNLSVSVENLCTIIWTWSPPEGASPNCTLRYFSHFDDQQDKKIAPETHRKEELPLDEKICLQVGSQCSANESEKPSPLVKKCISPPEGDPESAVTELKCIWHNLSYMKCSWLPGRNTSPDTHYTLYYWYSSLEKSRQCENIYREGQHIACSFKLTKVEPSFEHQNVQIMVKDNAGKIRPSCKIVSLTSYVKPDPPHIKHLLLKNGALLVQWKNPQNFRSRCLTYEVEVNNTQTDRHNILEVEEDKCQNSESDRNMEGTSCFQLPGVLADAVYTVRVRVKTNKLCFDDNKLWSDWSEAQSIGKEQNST
The experiment in a line: Western blot. Background: Immunoblotting shows a protein as a band on a membrane.

In test [2] the target is T2, FLAG-tagged IL-13Rα1-gp130 chimeric receptor (human).
T2 construct: Extracellular domain of human IL-13Rα1 fused to transmembrane and cytoplasmic domains of gp130; On 293A12-derived cells (lines 3.1.2, 3.2.4) in the reporter assay; in COS cell lysates in the Western blot; also called IL-13Rα1-gp130 fusion; IL13Rα1/gp130 chimera
T2 chain: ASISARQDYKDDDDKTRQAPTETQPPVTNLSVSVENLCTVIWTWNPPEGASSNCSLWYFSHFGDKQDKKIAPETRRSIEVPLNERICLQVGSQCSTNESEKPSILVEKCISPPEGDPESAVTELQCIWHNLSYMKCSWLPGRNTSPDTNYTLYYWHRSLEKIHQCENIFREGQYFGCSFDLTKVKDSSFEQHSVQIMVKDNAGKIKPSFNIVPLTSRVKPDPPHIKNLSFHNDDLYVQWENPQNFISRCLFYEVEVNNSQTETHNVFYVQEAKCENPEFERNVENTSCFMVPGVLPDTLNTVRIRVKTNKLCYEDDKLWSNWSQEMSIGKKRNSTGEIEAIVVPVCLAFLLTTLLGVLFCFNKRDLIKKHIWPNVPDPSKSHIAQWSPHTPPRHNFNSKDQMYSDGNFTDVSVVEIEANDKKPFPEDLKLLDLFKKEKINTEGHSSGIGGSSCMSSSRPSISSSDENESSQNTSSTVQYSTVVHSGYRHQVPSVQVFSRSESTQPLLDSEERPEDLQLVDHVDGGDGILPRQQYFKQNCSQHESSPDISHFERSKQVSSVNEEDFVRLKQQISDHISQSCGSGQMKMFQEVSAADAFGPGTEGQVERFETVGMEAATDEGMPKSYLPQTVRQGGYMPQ
The experiment in a line: Western blot of lysates of transfected COS cells after SDS-PAGE, probed with mAb 1D9. An excerpt: FIG. 3 is a photographic representation showing transient expression of chimeric receptor constructs in COS cells. COS cells were transfected with pEFBOS encoding FLAG-tagged IL-13Rα1-gp130, FLAG-tagged IL-4Rα-gp130 (two independent clones) or control β-gal. Cell lysates were recovered at 72 hrs and after SDS-PAGE and Western transfer, probed with either an anti-FLAG antibody or the IL-13Rα1-specific mAb 1D9.

Test [3] addresses T3, chimeric mouse IL-13Rα1-Fc (mouse; human, UniProt O09030 26-340).
T3 construct: extracellular domain; Bought (R & D Systems); Preformed disulphide-bonded dimer; also called mIL-13Rα1-Fc; chimeric mouse receptor; not shown: Fc portion of human IgG
T3 sequence (looked up): T1 sequence (looked up)
The experiment in a line: Biosensor blocking assay: mouse IL-13Rα1-Fc at 2 ug/ml pre-incubated 1 hour with titrated 1D9, then passed over immobilised IL-13. As for the experimental part: (§1) Initially mouse mAb 1D9 is tested for its ability to inhibit the interaction of the chimeric human and mouse IL-13Rα1-Fc with IL-13 using both an ELISA- and Biosensor-based approach. […] Identical results are obtained with the ELISA-based assay. 1D9 is a potent inhibitor of the chimeric human receptor, compared with a control mAb, but has no effect on the binding of the chimeric mouse receptor to mouse IL-13 (FIG. 6). The Biosensor study incorporated a 1D9 dose-response analysis and a further dose-response analysis was undertaken using the ELISA.

Test [4] has as its target T4, chimeric human IL-13Rα1-Fc (human, UniProt P78552 22-343).
T4 construct: Bought (R & D Systems); Extracellular domain of IL-13Rα1 fused to Fc of human IgG; Expressed as preformed disulphide-bonded dimer; also called hIL-13Rα1-Fc; chimeric human receptor; not shown: Fc portion of human IgG
T4 sequence: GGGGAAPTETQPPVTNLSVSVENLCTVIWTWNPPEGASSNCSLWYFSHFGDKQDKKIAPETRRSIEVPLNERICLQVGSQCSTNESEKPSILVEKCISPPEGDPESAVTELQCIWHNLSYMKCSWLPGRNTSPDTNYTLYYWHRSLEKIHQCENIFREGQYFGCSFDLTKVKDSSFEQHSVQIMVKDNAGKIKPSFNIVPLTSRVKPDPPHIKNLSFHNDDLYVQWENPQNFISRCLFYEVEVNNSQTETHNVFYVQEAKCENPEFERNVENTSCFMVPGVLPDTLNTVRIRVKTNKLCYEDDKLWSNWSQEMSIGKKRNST
The experiment in a line: Biosensor blocking assay: human IL-13Rα1-Fc at 2 ug/ml pre-incubated 1 hour with titrated 1D9, then passed over immobilised human IL-13 (the blocked ligand). As for the experimental part: as §1

Test [5] concerns the target T4, chimeric human IL-13Rα1-Fc. The experiment in a line: ELISA; 1D9 dose-response, inhibition of chimeric human IL-13Rα1-Fc binding to plate bound IL-13; ELISA dose-response; inhibition of chimeric human IL-13Rα1-Fc binding to IL-13. As for the experimental part:
as §1
In general terms: ELISA stands for enzyme-linked immunosorbent assay.

B1: murine monoclonal antibody 1D9 (antibody, IgG1, V domains shown)
VH: EVKLVESGGGLVKPGGSLKLSCAASGFTFSGYGMSWVRQTPEKRLEWVATISGLGGYTYYPDSVKGRFTISRDNAKNTLYLQMSSLRSDDTAFYYCARRFYGDYVGAMDYWGQGTSVTVSS
VL: DILMTQAAFSNPVTLGTSASISCRSSKSLLHSNGITYLYWYLQKPGQSPQLLIYQMSNLASGVPDRFSCSGSGTDFTLSISRVEAEDVGFYYCAQNLELPFTFGSGTKLEIE
notes: Murine hybridoma antibody (ECACC 03032101); also called mAb 1D9; mouse mAb 1D9
In the case of B1, the binding result in test [1] is “no binding”; in test [2] it was “binds”; in test [3], “no binding (tested: about 50 µg/ml)”. The “IC50 (read off the curve)” value in test [4] is around 2 mg/L. Moreover, the IC50 in test [5] is around 0.02 µM.
